Drawing on publication PMC9095878, this text covers stoichiometry N for one substance.

Several values for one entry are separate records, joined by “and”; a condition that tells them apart may be missing. Identical values can stand only once.

This test addresses N-terminal domain of mouse gasdermin-A3 released by TEV cleavage (mGSDMA3^Nterm) (mouse) (UniProt Q5Y4Y6). Put plainly: atomic force microscopy; supported lipid membranes (E. coli polar lipid extract) on mica incubated 3 h at 37 °C with 1.5 µM mGSDMA3 pre-cleaved with 0.4 µM TEV, rinsed, imaged by contact mode or FD-based AFM at room temperature in 50 mM NaCl, 0.1 mM EDTA, 0.1 mM TCEP, 20 mM Hepes, pH 7.4; subunits of ring-shaped oligomers counted from rotational power spectra.

On to “N-terminal domain of mouse gasdermin-A3 released by TEV cleavage (mGSDMA3^Nterm) (from UniProt Q5Y4Y6 1-237) (domain or fragment)”, for which the stoichiometry N – broadly, the number of molecules, sites or subunits per partner or assembly – was 18 to 36 (2×) and 30.
